Here are results for one molecule from PMC7115876 (Nature, 2020).

This assay has as its target human β-arrestin 1 (L68C, R169E) (human, UniProt P49407 2-418, L68C | R169E). The assay can be described thus: cryo-EM structure.

human β-arrestin 1 (L68C, R169E), sequence (P49407 2-418 L68C/R169E): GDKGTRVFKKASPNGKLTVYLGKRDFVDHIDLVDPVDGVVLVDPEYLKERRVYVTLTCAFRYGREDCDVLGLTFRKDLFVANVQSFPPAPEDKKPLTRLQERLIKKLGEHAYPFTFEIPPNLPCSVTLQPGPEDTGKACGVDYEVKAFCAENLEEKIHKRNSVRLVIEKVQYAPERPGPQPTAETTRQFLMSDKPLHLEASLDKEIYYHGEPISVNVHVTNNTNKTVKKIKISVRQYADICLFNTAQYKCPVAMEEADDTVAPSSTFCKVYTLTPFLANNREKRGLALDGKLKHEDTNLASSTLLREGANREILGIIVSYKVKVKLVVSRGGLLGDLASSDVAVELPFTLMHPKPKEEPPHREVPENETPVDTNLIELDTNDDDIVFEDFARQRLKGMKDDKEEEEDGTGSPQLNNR

B1: β1AR6P (turkey β1AR construct β83 ligated by sortase A to the phosphopeptide V2R6P) (receptor)
chain: not shown
modifications: six phosphoresidues in the V2R6P part: GGGDE[pS]A[pT][pT]A[pS][pS][pS]LAKDTSS
B1: the binding result was “binds”.
